Assay results taken from paper PMC2994906 (PLoS ONE, 2010).
No end group written: not given here.

Tests used:
Conditions in all cases: both partners purified
[1] = target: T1, hRARα/mRXRα LBD heterodimer (human | mouse, UniProt P10276 153-421; P28700 228-467); assay: fluorescence polarisation; fluorescence anisotropy; hRARα/mRXRα LBDs added to 1 µM TAMRA-SRC-1 NR2 peptide; 20°C; 10 mM TRIS-HCl pH 7.5, 150 mM NaCl, 10 mM DTT; apparent; RAR ligand AM580, RXR ligand LG100754
T1 construct: Heterodimer formed beforehand; small-molecule ligands (atRA, LG100754, AM580, BMS614, BMS649, 9-cisRA, HX531) differ between experiments and are named in the assays; also called RARα/RXRα LBD; RAR/RXR; not shown: His6, N-terminal, kept; copies: 1 + 1
T1 sequence (looked up) 1: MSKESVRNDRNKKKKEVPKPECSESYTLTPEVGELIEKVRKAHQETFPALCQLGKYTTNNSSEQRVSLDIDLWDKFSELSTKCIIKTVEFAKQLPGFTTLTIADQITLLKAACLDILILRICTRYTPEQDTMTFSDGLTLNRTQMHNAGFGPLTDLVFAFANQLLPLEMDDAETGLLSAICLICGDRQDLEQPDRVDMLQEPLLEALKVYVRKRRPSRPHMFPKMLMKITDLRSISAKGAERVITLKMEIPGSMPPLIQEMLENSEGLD
T1 sequence (looked up) 2: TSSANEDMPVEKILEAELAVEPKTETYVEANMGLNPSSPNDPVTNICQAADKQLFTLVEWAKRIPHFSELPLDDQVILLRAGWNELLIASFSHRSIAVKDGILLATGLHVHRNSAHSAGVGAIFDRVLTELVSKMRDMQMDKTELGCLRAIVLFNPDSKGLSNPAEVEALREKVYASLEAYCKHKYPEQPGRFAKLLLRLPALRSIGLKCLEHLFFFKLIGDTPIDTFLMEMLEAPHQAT

[2] = target: T1, hRARα/mRXRα LBD heterodimer; assay: fluorescence polarisation; fluorescence anisotropy; hRARα/mRXRα LBDs added to 1 µM TAMRA-SRC-1 NR2 peptide; 20°C; 10 mM TRIS-HCl pH 7.5, 150 mM NaCl, 10 mM DTT; apparent; RAR ligand AM580, RXR ligand BMS649; two sites, fit gave k2 identical to k1
[3] = target: T1, hRARα/mRXRα LBD heterodimer; assay: fluorescence polarisation; fluorescence anisotropy; hRARα/mRXRα LBDs added to a fixed concentration of TAMRA-SRC-1 NR2 peptide; 20°C; 10 mM TRIS-HCl pH 7.5, 150 mM NaCl, 10 mM DTT; apparent; RAR ligand BMS614, RXR ligand LG100754
[4] = target: T1, hRARα/mRXRα LBD heterodimer; assay: fluorescence polarisation; fluorescence anisotropy; hRARα/mRXRα LBDs added to 1 µM TAMRA-SRC-1 NR2 peptide; 20°C; 10 mM TRIS-HCl pH 7.5, 150 mM NaCl, 10 mM DTT; apparent; RAR ligand AM580, RXR apo
[5] = target: T1, hRARα/mRXRα LBD heterodimer; assay: fluorescence polarisation; fluorescence anisotropy; hRARα/mRXRα LBDs added to 1 µM TAMRA-SRC-1 NR2 peptide; 20°C; 10 mM TRIS-HCl pH 7.5, 150 mM NaCl, 10 mM DTT; apparent; RAR apo, RXR ligand BMS649
[6] = target: T1, hRARα/mRXRα LBD heterodimer; assay: fluorescence polarisation; fluorescence anisotropy; hRARα/mRXRα LBDs added to 1 µM TAMRA-SRC-1 NR2 peptide; 20°C; 10 mM TRIS-HCl pH 7.5, 150 mM NaCl, 10 mM DTT; apparent; 9-cisRA on RAR and RXR; two sites, fit gave k2 identical to k1
[7] = target: T1, hRARα/mRXRα LBD heterodimer; assay: fluorescence polarisation; fluorescence anisotropy; hRARα/mRXRα LBDs added to 1 µM TAMRA-SRC-1 NR2 peptide; 20°C; 10 mM TRIS-HCl pH 7.5, 150 mM NaCl, 10 mM DTT; apparent; RAR ligand BMS614, RXR ligand BMS649
[8] = target: T1, hRARα/mRXRα LBD heterodimer; assay: fluorescence polarisation; fluorescence anisotropy; hRARα/mRXRα LBDs added to a fixed concentration of TAMRA-SRC-1 NR2 peptide; 20°C; 10 mM TRIS-HCl pH 7.5, 150 mM NaCl, 10 mM DTT; apparent; RAR apo, RXR apo
[9] = target: T1, hRARα/mRXRα LBD heterodimer; assay: fluorescence polarisation; fluorescence anisotropy; hRARα/mRXRα LBDs added to a fixed concentration of TAMRA-SRC-1 NR2 peptide; 20°C; 10 mM TRIS-HCl pH 7.5, 150 mM NaCl, 10 mM DTT; apparent; RAR apo, RXR ligand LG100754
[10] = target: T2, human RARα LBD (residues 153-421) (human, UniProt P10276 153-421); assay: ITC; SRC-1 NR2 peptide (1.3 mM) injected into 20-50 µM RAR with an RAR agonist in fivefold molar excess (agonist not named); 30°C; 20 mM Tris pH 8.0, 200 mM NaCl, 2% ethanol
T2 construct: Cloned in pET15b; The purification of RARα alone is not described; also called hRARα LBD; RARα monomer; source: E. coli BL21 (DE3), purified
T2 sequence (looked up): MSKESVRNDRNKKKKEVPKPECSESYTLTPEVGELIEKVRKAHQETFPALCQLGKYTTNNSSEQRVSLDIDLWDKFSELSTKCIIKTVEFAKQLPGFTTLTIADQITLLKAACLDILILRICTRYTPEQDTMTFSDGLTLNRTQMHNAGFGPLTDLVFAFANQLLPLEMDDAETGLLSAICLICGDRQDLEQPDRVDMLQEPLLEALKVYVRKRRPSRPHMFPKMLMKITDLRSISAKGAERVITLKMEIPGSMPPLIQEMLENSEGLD

[11] = target: T3, hRARα/mRXRα LBD heterodimer (human | mouse, UniProt P10276 153-421; P28700 228-467); assay: ITC; SRC-1 NR2 peptide (1.3 mM) injected into 20-50 µM RAR or RAR/RXR with LG100754 in fivefold molar excess; 30°C; 20 mM Tris pH 8.0, 200 mM NaCl, 2% ethanol
T3 construct: RARα in pET15b (His-tagged), RXRα in pET3a (no tag named); The heterodimer was formed beforehand by copurification; also called RAR/RXR; RARα/RXRα LBD; copies: 1 + 1
T3 sequence (looked up) 1: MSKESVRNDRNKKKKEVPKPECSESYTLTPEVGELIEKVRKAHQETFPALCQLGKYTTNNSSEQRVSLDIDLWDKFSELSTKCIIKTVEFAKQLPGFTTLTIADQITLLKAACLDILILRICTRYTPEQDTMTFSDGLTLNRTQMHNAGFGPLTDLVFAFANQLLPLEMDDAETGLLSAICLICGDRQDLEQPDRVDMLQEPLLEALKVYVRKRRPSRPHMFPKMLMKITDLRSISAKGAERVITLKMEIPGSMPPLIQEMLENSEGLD
T3 sequence (looked up) 2: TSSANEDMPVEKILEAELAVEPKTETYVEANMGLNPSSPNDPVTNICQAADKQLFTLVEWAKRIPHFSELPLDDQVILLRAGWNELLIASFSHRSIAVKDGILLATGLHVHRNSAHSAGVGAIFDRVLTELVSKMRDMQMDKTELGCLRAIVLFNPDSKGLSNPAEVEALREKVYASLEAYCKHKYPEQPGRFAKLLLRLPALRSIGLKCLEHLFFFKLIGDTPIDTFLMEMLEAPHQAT

[12] = target: T2, human RARα LBD (residues 153-421); assay: as above
[13] = target: T2, human RARα LBD (residues 153-421); assay: ITC; SRC-1 NR2 peptide (1.3 mM) injected into 20-50 µM RAR without ligand (apo); 30°C; 20 mM Tris pH 8.0, 200 mM NaCl, 2% ethanol

B1: TAMRA-labeled SRC-1 NR2 peptide (686-RHKILHRLLQEGS-698) (peptide)
peptide: RHKILHRLLQEGS
modifications: also: TAMRA label, position not given here
notes: also called (TAMRA) – SRC-1 NR2 peptide; source: bought: Neosystem (Strasbourg, France)
Work on B1 yielded a Kd [1] of 170 ± 10 nM, a Kd [2] of 290 ± 20 nM and a Kd [3] greater than 10000 nM. For the same binder, the Kd [4] was 190 ± 20 nM, the Kd [5] was 420 ± 30 nM and the Kd [6] was 610 ± 20 nM. The Kd [7] was 450 ± 40 nM, the Kd [8] was 2000 ± 100 nM and the Kd [9] was 2500 ± 100 nM.

B2: SRC-1 NR2 peptide (676-[residues removed]-700) (peptide)
peptide: CPSSHSSLTERHKILHRLLQEGSPS
notes: The unlabelled 25-residue peptide used in ITC and ESI-MS; It is not the 13-residue TAMRA-labelled peptide of the anisotropy titrations
Work on B2 yielded a Kd [10] of 1400 ± 100 nM, a Kd [11] of 4500 ± 600 nM and a Kd [12] of 1600 ± 200 nM. The Kd [13] was 9000 ± 400 nM.
